Laboratory results from US20110033518A1.
“And” between values parts separate entries of the source, which are not always exact repeats. Equal values may be shown once.

Experiments:
[1] = biological target: human ABCA1 transporter on stably transfected HeLa cells (human) (UniProt O95477); experiment: cell-based or functional assay
[2] = biological target: human ABCA1 transporter on stably transfected HeLa cells (human) (UniProt O95477); experiment: two-step sequential competitive binding on ABCA1-transfected HeLa cells, competitor at 8 µM, tracer 125I-L-37pA
[3] = biological target: human ABCA1 transporter on stably transfected HeLa cells (human) (UniProt O95477); experiment: direct binding of 125I-L-37pA at 1 µg/ml to ABCA1-transfected HeLa cells, 1 hour, 4 C; set-up: unit not given here

Chain of UniProt O95477 (O95477 whole entry): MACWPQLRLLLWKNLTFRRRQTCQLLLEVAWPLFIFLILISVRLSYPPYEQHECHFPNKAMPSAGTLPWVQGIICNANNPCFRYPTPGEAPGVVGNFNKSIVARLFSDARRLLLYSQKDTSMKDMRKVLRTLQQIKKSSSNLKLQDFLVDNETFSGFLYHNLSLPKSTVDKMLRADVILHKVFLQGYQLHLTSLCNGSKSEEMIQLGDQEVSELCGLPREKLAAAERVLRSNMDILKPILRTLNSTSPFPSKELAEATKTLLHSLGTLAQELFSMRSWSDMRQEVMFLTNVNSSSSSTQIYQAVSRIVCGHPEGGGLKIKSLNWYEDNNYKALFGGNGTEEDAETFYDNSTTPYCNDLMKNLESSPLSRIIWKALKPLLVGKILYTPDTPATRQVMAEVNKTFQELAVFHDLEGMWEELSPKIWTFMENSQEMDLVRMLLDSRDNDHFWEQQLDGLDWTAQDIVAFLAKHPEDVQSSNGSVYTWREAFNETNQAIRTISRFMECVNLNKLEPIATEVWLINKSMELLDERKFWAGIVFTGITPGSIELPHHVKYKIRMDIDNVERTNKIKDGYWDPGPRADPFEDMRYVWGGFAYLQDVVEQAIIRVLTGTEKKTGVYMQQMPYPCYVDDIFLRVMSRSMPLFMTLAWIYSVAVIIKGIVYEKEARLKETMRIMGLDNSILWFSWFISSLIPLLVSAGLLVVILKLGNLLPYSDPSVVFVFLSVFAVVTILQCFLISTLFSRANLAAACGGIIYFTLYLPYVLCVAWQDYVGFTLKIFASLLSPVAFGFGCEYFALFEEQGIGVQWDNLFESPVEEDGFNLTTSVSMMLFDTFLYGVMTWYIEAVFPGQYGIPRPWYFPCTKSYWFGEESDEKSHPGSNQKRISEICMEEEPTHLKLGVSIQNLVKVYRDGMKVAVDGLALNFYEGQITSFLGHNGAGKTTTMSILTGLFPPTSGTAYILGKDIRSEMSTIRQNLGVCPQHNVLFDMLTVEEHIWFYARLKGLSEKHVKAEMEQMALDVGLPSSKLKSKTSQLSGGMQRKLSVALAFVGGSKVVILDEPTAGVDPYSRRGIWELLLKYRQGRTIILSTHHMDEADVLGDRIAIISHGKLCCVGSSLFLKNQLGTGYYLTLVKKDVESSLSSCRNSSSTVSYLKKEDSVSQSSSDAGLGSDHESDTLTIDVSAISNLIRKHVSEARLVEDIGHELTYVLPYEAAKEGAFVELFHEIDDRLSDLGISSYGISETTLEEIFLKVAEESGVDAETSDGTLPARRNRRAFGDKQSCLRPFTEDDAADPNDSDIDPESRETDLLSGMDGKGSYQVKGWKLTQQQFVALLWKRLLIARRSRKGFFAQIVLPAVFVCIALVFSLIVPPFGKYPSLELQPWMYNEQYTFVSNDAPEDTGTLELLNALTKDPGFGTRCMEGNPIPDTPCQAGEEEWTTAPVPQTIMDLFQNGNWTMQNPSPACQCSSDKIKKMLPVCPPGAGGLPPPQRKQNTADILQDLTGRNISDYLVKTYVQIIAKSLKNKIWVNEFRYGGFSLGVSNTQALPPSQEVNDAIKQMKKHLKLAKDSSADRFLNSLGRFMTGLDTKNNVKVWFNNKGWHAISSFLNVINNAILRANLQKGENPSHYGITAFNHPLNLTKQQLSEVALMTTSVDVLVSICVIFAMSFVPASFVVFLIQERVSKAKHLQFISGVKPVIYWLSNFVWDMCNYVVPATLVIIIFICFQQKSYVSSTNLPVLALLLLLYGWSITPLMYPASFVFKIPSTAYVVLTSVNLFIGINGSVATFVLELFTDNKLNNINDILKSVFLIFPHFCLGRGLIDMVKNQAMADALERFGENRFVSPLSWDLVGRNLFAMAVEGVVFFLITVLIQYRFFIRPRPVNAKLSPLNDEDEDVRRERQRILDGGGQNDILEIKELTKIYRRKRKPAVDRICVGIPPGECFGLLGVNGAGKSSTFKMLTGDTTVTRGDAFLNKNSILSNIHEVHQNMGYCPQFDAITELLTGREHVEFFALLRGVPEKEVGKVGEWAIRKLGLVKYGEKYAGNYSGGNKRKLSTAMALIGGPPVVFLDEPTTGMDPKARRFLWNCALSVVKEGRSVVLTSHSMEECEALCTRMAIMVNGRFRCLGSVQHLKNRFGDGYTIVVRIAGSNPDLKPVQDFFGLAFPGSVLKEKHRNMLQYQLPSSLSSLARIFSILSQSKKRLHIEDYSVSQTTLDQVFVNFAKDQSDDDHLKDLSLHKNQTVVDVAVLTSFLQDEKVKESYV

cholesterol and phospholipid efflux, ABCA1 cells against control cells, 18 hours [1]: 2 fold and 4 fold
concentration at which lipid efflux began to show saturation [1]: 2 µM
percent of labeled L-37pA binding blocked [2]: 40%
cell-bound radiolabeled peptide in the absence of a competitor [3]: 35
B1: L-37pA peptide (peptide)
peptide: DWLKAFYDKVAEKLKEAFPDWLKAFYDKVAEKLKEAF
